According to the supplement of paper PMC6757056:
± gives the standard deviation of the averaged measurements.

B1: library; a variant is named by its letters at N, in order (parent)
chain: GCUGUCACCGGUGCUUGGUACGUUAUAUUCAGCCGGUCUGAUGAGUCUNNNNNNAGACGAAACAGC

Key:
(6R,S)-folinic acid [1] = variants of: B1; test: normalized RNA/DNA level without ligand (relative to sTRSVctl = 100) (log10 (% of sTRSVctl)); HEK293T overexpressing SLC46A1; higher = less ribozyme self-cleavage, higher mRNA level; details: without (6R,S)-folinic acid; ligand present: no
Method in brief: (§1)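 HEK293T cells were transfected with library plasmids carrying ribozyme switches linked to an mCherry reporter, or an eGFP reporter in some ligand experiments, at 4 µg per well of a 6-well plate, with any ligand added 1 h beforehand. After 72 h, total RNA was extracted with EDTA, reverse-transcribed, amplified, barcoded and sequenced. RNA level was defined as RNA reads over DNA reads, normalized to a spiked-in non-cleaving sequence or to the top-ranked sequences. That value was multiplied by 100 and converted to log10, the top set was 25 sequences, and only sequences with ≥100 DNA reads were retained.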

(6R,S)-folinic acid [2] = variants of: B1; test: normalized RNA/DNA level with ligand (relative to sTRSVctl = 100) (log10 (% of sTRSVctl)); HEK293T overexpressing SLC46A1; ligand concentration (+) RNA-Seq: 6 mM; higher = less ribozyme self-cleavage, higher mRNA level; details: with (6R,S)-folinic acid; ligand present: yes
Method in brief: as §1

Row | Variant | normalized RNA/DNA level without ligand (log10) ((6R,S)-folinic acid [1]) | normalized RNA/DNA level with ligand (log10) ((6R,S)-folinic acid [2])
1 | UUCCAG | 1.91 ± 0.021 | 1.99 ± 0.034
2 | UUCCAC | 2.01 ± 0.016 | 1.99 ± 0.033
3 | UUCCAU | 1.99 ± 0.023 | 1.99 ± 0.049
4 | AUCCCA | 2.022 ± 0.0087 | 2.03 ± 0.036
5 | AUCCCG | 2.01 ± 0.0024 | 2.01 ± 0.029
6 | AUCCCC | 2.047 ± 0.013 | 2.01 ± 0.05
7 | AUCCCU | 2.039 ± 0.0098 | 2.027 ± 0.012
8 | UUAGUG | 1.759 ± 0.012 | 1.962 ± 0.012
9 | UUAGUC | 2.031 ± 0.0018 | 2.024 ± 0.0089
10 | UUAGUU | 1.972 ± 0.0056 | 1.97 ± 0.052
11 | AUCUGA | 2.021 ± 0.016 | 2.02 ± 0.058
12 | GUCGUC | 2.02 ± 0.03 | 2.02 ± 0.034
13 | GUCGUG | 1.9677 ± 0.0013 | 2.04 ± 0.029
14 | GUCGUU | 2.029 ± 0.018 | 2.02 ± 0.056
15 | CUCACC | 2.06 ± 0.029 | 1.96 ± 0.048
16 | CUCACA | 2.036 ± 0.0022 | 2 ± 0.049
17 | CUCACG | 2.04 ± 0.027 | 2.028 ± 0.02
18 | CUCACU | 2.041 ± 0.0055 | 1.99 ± 0.021
19 | AUAUGC | 1.9727 ± 0.0008 | 1.99 ± 0.046
20 | UUCGCU | 1.981 ± 0.014 | 1.99 ± 0.026

Row | Variant | normalized RNA/DNA level without ligand (log10) ((6R,S)-folinic acid [1]) | normalized RNA/DNA level with ligand (log10) ((6R,S)-folinic acid [2])
21 | UUCGCG | 1.91 ± 0.029 | 1.968 ± 0.0034
22 | UUCGCC | 2.017 ± 0.0095 | 2.01 ± 0.025
23 | UUCGCA | 1.988 ± 0.016 | 2 ± 0.048
24 | AUCACC | 2.057 ± 0.0026 | 2.04 ± 0.053
25 | AUCACU | 2.029 ± 0.008 | 2.01 ± 0.03
26 | AUCACG | 1.969 ± 0.014 | 2.01 ± 0.043
27 | CUAUGA | 2.02 ± 0.013 | 2.02 ± 0.027
28 | CUAUGG | 1.97 ± 0.03 | 2.039 ± 0.014
29 | CUAUGC | 2.036 ± 0.0043 | 2.036 ± 0.0099
30 | CUAUCC | 2.07 ± 0.03 | 2.04 ± 0.037
31 | CUAUCG | 2.037 ± 0.015 | 2.02 ± 0.043
32 | CUAUCU | 2.042 ± 0.0051 | 2.06 ± 0.022
33 | CUAUCA | 2.03 ± 0.035 | 2.0307 ± 0.00092
34 | GUAUGU | 1.937 ± 0.015 | 1.995 ± 0.013
35 | GUAUGG | 1.921 ± 0.015 | 2.02 ± 0.035
36 | GUAUGA | 1.987 ± 0.0024 | 2.028 ± 0.017
37 | UUCCGU | 2.0373 ± 0.0012 | 2.05 ± 0.048
38 | UUCCGC | 2.03 ± 0.026 | 2.01 ± 0.039
39 | UUCCGG | 2.025 ± 0.006 | 2.03 ± 0.031
40 | CUCAUA | 1.99 ± 0.021 | 1.96 ± 0.055

Row | Variant | normalized RNA/DNA level without ligand (log10) ((6R,S)-folinic acid [1]) | normalized RNA/DNA level with ligand (log10) ((6R,S)-folinic acid [2])
41 | CUCAUU | 2.08 ± 0.03 | 2.05 ± 0.026
42 | CUCAUG | 2.003 ± 0.019 | 1.98 ± 0.023
43 | GUCGGA | 1.997 ± 0.0032 | 2.02 ± 0.045
44 | GUCGGG | 1.998 ± 0.011 | 2.05 ± 0.051
45 | GUCGGU | 2.018 ± 0.0045 | 2.06 ± 0.027
46 | GUCGGC | 2.004 ± 0.0028 | 2.03 ± 0.025
47 | UUCGGA | 1.961 ± 0.0071 | 2.024 ± 0.0051
48 | UUCGGG | 1.86 ± 0.024 | 2.01 ± 0.052
49 | UUCGGU | 1.962 ± 0.013 | 2 ± 0.021
50 | CUAGUU | 2.064 ± 0.0034 | 2.03 ± 0.041
51 | CUAGUG | 2 ± 0.028 | 2.03 ± 0.014
52 | UUAUUC | 2.012 ± 0.0098 | 2.02 ± 0.079
53 | UUAUUA | 1.975 ± 0.0052 | 1.99 ± 0.02
54 | GUCCGU | 2.02 ± 0.021 | 2.022 ± 0.012
55 | GUCCGC | 2.07 ± 0.011 | 2.045 ± 0.0035
56 | CUAUAA | 1.984 ± 0.0043 | 1.978 ± 0.0033
57 | CUAUAU | 2 ± 0.033 | 2.03 ± 0.063
58 | CUAUAC | 2.001 ± 0.0069 | 2.01 ± 0.014
